Assay results from patent publication US20250109203A1.
Positions count from the first letter of the chain named.

B1: hu1D7v11 VHH-hIgG1 Fc-NNT (monomeric) (VHH)
VHH: EVQLLESGGGEVQPGGSLRLSCVASRGKISQYRMGWYRQAPGKGLEWVAAISNTGDAAEYVDSVKGRFTISRDSTKNAVYLQMSSLRAEDTAVYKCNSVEDILAWGQGTLVTVKP
B2: hu1D7v78 VHH-hIgG1 Fc-NNT (monomeric) (VHH)
VHH: B1 VHH with G44E, L45R, W47L, A50H, G66D, V79L, S98A, K114R
B3: hu1D7v35 VHH-hIgG1 Fc-NNT (monomeric) (VHH)
VHH: B1 VHH with G44E, A50H, V79L
B4: hu1D7v57 VHH-hIgG1 Fc-NNT (monomeric) (VHH)
VHH: B1 VHH with G44E, L45R, W47L, A50H, V79L, K114R
B5: hu1D7v73 VHH-hIgG1 Fc-NNT (monomeric) (VHH)
VHH: B1 VHH with G44E, L45R, W47L, A50H, S63I, G66D, V79L, K114R
B6: hu1D7v89 VHH-hIgG1 Fc-NNT (monomeric) (VHH)
VHH: B1 VHH with G44E, L45R, W47L, A50H, G66D, V79L, N97Q, S98G, K114R
B7: hu1D7v90 VHH-hIgG1 Fc-NNT (monomeric) (VHH)
VHH: B1 VHH with G44E, L45R, W47L, A50H, G66D, V79L, N97S, S98G, K114R
B8: hu1D7v84 VHH-hIgG1 Fc-NNT (monomeric) (VHH)
VHH: B1 VHH with G44E, L45R, W47L, A50H, D62E, S63G, G66D, V79L, K114R
B9: hu1D7v32 VHH-hIgG1 Fc-NNT (monomeric) (VHH)
VHH: B1 VHH with G44E, A50H, D62E
B10: hu1D7v26 VHH-hIgG1 Fc-NNT (monomeric) (VHH)
VHH: B1 VHH with A50H, K95Y
B11: hu1D7v60 VHH-hIgG1 Fc-NNT (monomeric) (VHH)
VHH: B1 VHH with G44E, L45R, W47L, A50H, G66D, S74N, T75A, V79L, K114R
B12: hu1D7v80 VHH-hIgG1 Fc-NNT (monomeric) (VHH)
VHH: B1 VHH with G44E, L45R, W47L, A50H, G66D, V79L, S98V, K114R
B13: hu1D7v1 VHH-hIgG1 Fc-NNT (monomeric) (VHH)
VHH: B1 VHH with A50H
B14: hu1D7v15 VHH-hIgG1 Fc-NNT (monomeric) (VHH)
VHH: B1 VHH with A50H, A57S
B15: hu1D7v74 VHH-hIgG1 Fc-NNT (monomeric) (VHH)
VHH: B1 VHH with G44E, L45R, W47L, A50H, D62A, G66D, V79L, K114R
B16: hu1D7v67 VHH-hIgG1 Fc-NNT (monomeric) (VHH)
VHH: B1 VHH with G44E, L45R, W47L, A50H, G66D, V79L, N97Q, K114R
B17: hu1D7v75 VHH-hIgG1 Fc-NNT (monomeric) (VHH)
VHH: B1 VHH with G44E, L45R, W47L, A50H, D62G, G66D, V79L, K114R
B18: hu1D7v94 VHH-hIgG1 Fc-NNT (monomeric) (VHH)
VHH: B1 VHH with G44E, L45R, W47L, A50H, G66D, V79L, N97S, S98N, K114R
B19: hu1D7v24 VHH-hIgG1 Fc-NNT (monomeric) (VHH)
VHH: B1 VHH with A50H, S98A
B20: hu1D7v23 VHH-hIgG1 Fc-NNT (monomeric) (VHH)
VHH: B1 VHH with A50H, V79L
B21: hu1D7v22 VHH-hIgG1 Fc-NNT (monomeric) (VHH)
VHH: B1 VHH with A50H, A78T
B22: hu1D7v18 VHH-hIgG1 Fc-NNT (monomeric) (VHH)
VHH: B1 VHH with A50H, V61A, D62E
B23: hu1D7v87 VHH-hIgG1 Fc-NNT (monomeric) (VHH)
VHH: B1 VHH with G44E, L45R, W47L, A50H, D62Q, G66D, V79L, K114R
B24: hu1D7v38 VHH-hIgG1 Fc-NNT (monomeric) (VHH)
VHH: B1 VHH with G44E, A50H, S98V
B25: hu1D7v28 VHH-hIgG1 Fc-NNT (monomeric) (VHH)
VHH: B1 VHH with V23A, G44E, A50H
B26: hu1D7v92 VHH-hIgG1 Fc-NNT (monomeric) (VHH)
VHH: B1 VHH with G44E, L45R, W47L, A50H, G66D, V79L, N97Q, S98N, K114R
B27: hu1D7v91 VHH-hIgG1 Fc-NNT (monomeric) (VHH)
VHH: B1 VHH with G44E, L45R, W47L, A50H, G66D, V79L, N97G, S98G, K114R
B28: hu1D7v61 VHH-hIgG1 Fc-NNT (monomeric) (VHH)
VHH: B1 VHH with G44E, L45R, W47L, A50H, G66D, V79L, S98T, K114R
B29: hu1D7v31 VHH-hIgG1 Fc-NNT (monomeric) (VHH)
VHH: B1 VHH with G44E, A50H, D62A, S63P
B30: hu1D7v88 VHH-hIgG1 Fc-NNT (monomeric) (VHH)
VHH: B1 VHH with G44E, L45R, W47L, A50H, D62Q, S63G, G66D, V79L, K114R
B31: hu1D7v96 VHH-hIgG1 Fc-NNT (monomeric) (VHH)
VHH: B1 VHH with G44E, L45R, W47L, A50H, D62Y, G66D, V79L, K114R
B32: hu1D7v59 VHH-hIgG1 Fc-NNT (monomeric) (VHH)
VHH: B1 VHH with G44E, L45R, W47L, A50H, D62A, S63P, G66D, V79L, K114R
B33: hu1D7v33 VHH-hIgG1 Fc-NNT (monomeric) (VHH)
VHH: B1 VHH with G44E, A50H, G66D
B34: hu1D7v66 VHH-hIgG1 Fc-NNT (monomeric) (VHH)
VHH: B1 VHH with G44E, L45R, W47L, A50H, S63T, G66D, V79L, K114R
B35: hu1D7v72 VHH-hIgG1 Fc-NNT (monomeric) (VHH)
VHH: B1 VHH with G44E, L45R, W47L, A50H, S63L, G66D, V79L, K114R
B36: hu1D7v70 VHH-hIgG1 Fc-NNT (monomeric) (VHH)
VHH: B1 VHH with G44E, L45R, W47L, A50H, G66D, V79L, N97E, K114R
B37: hu1D7v34 VHH-hIgG1 Fc-NNT (monomeric) (VHH)
VHH: B1 VHH with G44E, A50H, S74N, T75A
B38: hu1D7v6 VHH-hIgG1 Fc-NNT (monomeric) (VHH)
VHH: B1 VHH with I29F, A50H
B39: hu1D7v37 VHH-hIgG1 Fc-NNT (monomeric) (VHH)
VHH: B1 VHH with G44E, A50H, S98T
B40: hu1D7v36 VHH-hIgG1 Fc-NNT (monomeric) (VHH)
VHH: B1 VHH with G44E, A50H, K95Y
B41: hu1D7v13 VHH-hIgG1 Fc-NNT (monomeric) (VHH)
VHH: B1 VHH with A50H, T54S
B42: hu1D7v83 VHH-hIgG1 Fc-NNT (monomeric) (VHH)
VHH: B1 VHH with G44E, L45R, W47L, A50H, S63G, G66D, V79L, K114R
B43: hu1D7v81 VHH-hIgG1 Fc-NNT (monomeric) (VHH)
VHH: B1 VHH with G44E, L45R, W47L, A50H, G66D, V79L, N97A, K114R
B44: hu1D7v39 VHH-hIgG1 Fc-NNT (monomeric) (VHH)
VHH: B1 VHH with G44E, A50H, K114R
B45: hu1D7v25 VHH-hIgG1 Fc-NNT (monomeric) (VHH)
VHH: B1 VHH with A50H, N97A
B46: hu1D7v79 VHH-hIgG1 Fc-NNT (monomeric) (VHH)
VHH: B1 VHH with G44E, L45R, W47L, A50H, G66D, V79L, S98L, K114R
B47: hu1D7v19 VHH-hIgG1 Fc-NNT (monomeric) (VHH)
VHH: B1 VHH with A50H, G66D
B48: hu1D7v71 VHH-hIgG1 Fc-NNT (monomeric) (VHH)
VHH: B1 VHH with G44E, L45R, W47L, A50H, S63V, G66D, V79L, K114R
B49: hu1D7v76 VHH-hIgG1 Fc-NNT (monomeric) (VHH)
VHH: B1 VHH with G44E, L45R, W47L, A50H, D62V, G66D, V79L, K114R
B50: hu1D7v30 VHH-hIgG1 Fc-NNT (monomeric) (VHH)
VHH: B1 VHH with G44E, A50H, E59Y
B51: hu1D7v65 VHH-hIgG1 Fc-NNT (monomeric) (VHH)
VHH: B1 VHH with G44E, L45R, W47L, A50H, S63A, G66D, V79L, K114R
B52: hu1D7v93 VHH-hIgG1 Fc-NNT (monomeric) (VHH)
VHH: B1 VHH with G44E, L45R, W47L, A50H, G66D, V79L, S98Q, K114R
B53: hu1D7v29 VHH-hIgG1 Fc-NNT (monomeric) (VHH)
VHH: B1 VHH with Q31S, G44E, A50H
B54: hu1D7v58 VHH-hIgG1 Fc-NNT (monomeric) (VHH)
VHH: B1 VHH with G44E, L45R, W47L, A50H, G66D, V79L, K114R
B55: hu1D7v4 VHH-hIgG1 Fc-NNT (monomeric) (VHH)
VHH: B1 VHH with G27F, A50H
B56: hu1D7v16 VHH-hIgG1 Fc-NNT (monomeric) (VHH)
VHH: B1 VHH with A50H, A58T
B57: hu1D7v8 VHH-hIgG1 Fc-NNT (monomeric) (VHH)
VHH: B1 VHH with R33A, A50H
B58: hu1D7v69 VHH-hIgG1 Fc-NNT (monomeric) (VHH)
VHH: B1 VHH with G44E, L45R, W47L, A50H, G66D, V79L, N97T, K114R
B59: hu1D7v14 VHH-hIgG1 Fc-NNT (monomeric) (VHH)
VHH: B1 VHH with A50H, D56G
B60: hu1D7v17 VHH-hIgG1 Fc-NNT (monomeric) (VHH)
VHH: B1 VHH with A50H, E59Y
B61: hu1D7v63 VHH-hIgG1 Fc-NNT (monomeric) (VHH)
VHH: EVQLLESGGGEVQPGGSLRLSCAASRGKISQYRMGWYRQAPGKERELVAHISNTGDAAEYVAPVKDRFTISRDNAKNALYLQMSSLRAEDTAVYKCNTVEDILAWGQGTLVTVRP
B62: 1D7 VHH-hIgG1 Fc-NNT (monomeric, parental) (VHH)
VHH: QVQLVQSGGGLVQPGGSLRLSCVASRGKISQYRMGWYRQAPGKQRELVAHISNTGDAAEYVDSVKGRFTISRDSTKNAVYLQMNSLKPEDTAVYKCNSVEDILAWGQGTQVTVKP

molecular target: human γδ TCR (Vγ9Vδ2) on human Vδ2+ γδ T cells (human) (UniProt A0JD36); test: flow cytometry on expanded human Vδ2+ γδ T cells, nonlinear fit

| Binder | Kd [nM] |
| --- | --- |
| B1 | 42.2 |
| B2 | 481 |
| B3 | 8.4 |
| B4 | 10.5 |
| B5 | 180 |
| B6 | 1950 |
| B7 | 95.6 |
| B8 | 43.6 |
| B9 | 35.7 |
| B10 | 29 |
| B11 | 9.67 |
| B12 | 646 |
| B13 | 5.23 |
| B14 | 16.4 |
| B15 | 60.4 |
| B16 | 1740 |
| B17 | 118 |
| B18 | 752 |
| B19 | 9440 |
| B20 | 18.1 |
| B21 | 29.1 |

| Binder | Kd [nM] |
| --- | --- |
| B22 | 42.5 |
| B23 | 44.9 |
| B24 | 20200 |
| B25 | 15.7 |
| B26 | 104 |
| B27 | 154 |
| B28 | 41.3 |
| B29 | 16.7 |
| B30 | 61.5 |
| B31 | 191 |
| B32 | 23.8 |
| B33 | 13 |
| B34 | 93.3 |
| B35 | 182 |
| B36 | 441 |
| B37 | 11.7 |
| B38 | 35.1 |
| B39 | 17.4 |
| B40 | 1500 |
| B41 | 18.2 |
| B42 | 36.3 |

| Binder | Kd [nM] |
| --- | --- |
| B43 | 843 |
| B44 | 7.99 |
| B45 | 866000 |
| B46 | 497 |
| B47 | 26.7 |
| B48 | 135 |
| B49 | 125 |
| B50 | 38.4 |
| B51 | 347 |
| B52 | 1090 |
| B53 | 7230 |
| B54 | 8.07 |
| B55 | 8860 |
| B56 | 24.6 |
| B57 | 7870 |
| B58 | 1010 |
| B59 | 21.5 |
| B60 | 20.1 |
| B61 | 14.7 |
| B62 | 6.09 |
